Values of other authors, collected in article PMC3082522.

Molecular target: filamentous actin (Oryctolagus cuniculus) (UniProt P68135)

Kd: 220 nM
Substance: espin (from UniProt Q63618)
